Data: patent US20150259426A1 (Novartis, published 2015)

Biological target: cell-bound human DR5 (Colo205 and other human cell lines) (human, UniProt O14763 56-440)
Assay: cell-based or functional assay

Row | Binder | IC50, cell survival, A549 | IC50, cell survival, BxPC-3 | IC50, cell survival, Colo205 | IC50, cell survival, H226 | IC50, cell survival, H2122 | IC50, cell survival, Jurkat (72) | IC50, cell survival, M30 | IC50, cell survival, MiaPaCa-2 | IC50, cell survival, Panc-1 | IC50, cell survival, T24 | fold improvement of IC50, penta against tetra, A549 | fold improvement of IC50, penta against tetra, BxPC-3 | fold improvement of IC50, penta against tetra, Colo205 | fold improvement of IC50, penta against tetra, H226 | fold improvement of IC50, penta against tetra, H2122 | fold improvement of IC50, penta against tetra, Jurkat (72) | fold improvement of IC50, penta against tetra, M30 | fold improvement of IC50, penta against tetra, MiaPaCa-2 | fold improvement of IC50, penta against tetra, Panc-1 | fold improvement of IC50, penta against tetra, T24
1 | 4E6-Hu penta (4E6 hu pentamer) (other) EVQLLESGGGLVQPGGSLRLSCAASGRTFGSIRVGWFRQAPGKGREFVSAINRNDGTTYYADSVKGRFTISRDNSKNTVYLQMNSLRPEDTAVYYCAAGLQYNRAADRVPVGAVYWGQGTLVTVSSGGGGSGGGGSGGGGSGGGGSGGGGSGGGGSGGGGSEVQLLESGGGLVQPGGSLRLSCAASGRTFGSIRVGWFRQAPGKGREFVSAINRNDGTTYYADSVKGRFTISRDNSKNTVYLQMNSLRPEDTAVYYCAAGLQYNRAADRVPVGAVYWGQGTLVTVSSGGGGSGGGGSGGGGSGGGGSGGGGSGGGGSGGGGSEVQLLESGGGLVQPGGSLRLSCAASGRTFGSIRVGWFRQAPGKGREFVSAINRNDGTTYYADSVKGRFTISRDNSKNTVYLQMNSLRPEDTAVYYCAAGLQYNRAADRVPVGAVYWGQGTLVTVSSGGGGSGGGGSGGGGSGGGGSGGGGSGGGGSGGGGSEVQLLESGGGLVQPGGSLRLSCAASGRTFGSIRVGWFRQAPGKGREFVSAINRNDGTTYYADSVKGRFTISRDNSKNTVYLQMNSLRPEDTAVYYCAAGLQYNRAADRVPVGAVYWGQGTLVTVSSGGGGSGGGGSGGGGSGGGGSGGGGSGGGGSGGGGSEVQLLESGGGLVQPGGSLRLSCAASGRTFGSIRVGWFRQAPGKGREFVSAINRNDGTTYYADSVKGRFTISRDNSKNTVYLQMNSLRPEDTAVYYCAAGLQYNRAADRVPVGAVYWGQGTLVTVSS | > 10000 pM | 5 pM | 0.7 pM | 27.2 pM | 0.8 pM | 3.6 pM | > 10000 pM | 3.8 pM | 10.5 pM | 4.3 pM | 1 fold | 6 fold | 5 fold | 5 fold | 7 fold | 5 fold | 1 fold | 5 fold | 22 fold | 10 fold
2 | 11H6-Hu penta (11H6 hu pentamer) (other) EVQLLESGGGLVQPGGSLRLSCAASGTFDKINNMGWYRQAPGKQRDLVAQITPGGITDYADSVKGRFTISRDNSKNTLYLQMNSLRPEDTAVYYCNAEILKRAYIDVYVNYWGQGTLVTVSSGGGGSGGGGSGGGGSGGGGSGGGGSGGGGSGGGGSEVQLLESGGGLVQPGGSLRLSCAASGTFDKINNMGWYRQAPGKQRDLVAQITPGGITDYADSVKGRFTISRDNSKNTLYLQMNSLRPEDTAVYYCNAEILKRAYIDVYVNYWGQGTLVTVSSGGGGSGGGGSGGGGSGGGGSGGGGSGGGGSGGGGSEVQLLESGGGLVQPGGSLRLSCAASGTFDKINNMGWYRQAPGKQRDLVAQITPGGITDYADSVKGRFTISRDNSKNTLYLQMNSLRPEDTAVYYCNAEILKRAYIDVYVNYWGQGTLVTVSSGGGGSGGGGSGGGGSGGGGSGGGGSGGGGSGGGGSEVQLLESGGGLVQPGGSLRLSCAASGTFDKINNMGWYRQAPGKQRDLVAQITPGGITDYADSVKGRFTISRDNSKNTLYLQMNSLRPEDTAVYYCNAEILKRAYIDVYVNYWGQGTLVTVSSGGGGSGGGGSGGGGSGGGGSGGGGSGGGGSGGGGSEVQLLESGGGLVQPGGSLRLSCAASGTFDKINNMGWYRQAPGKQRDLVAQITPGGITDYADSVKGRFTISRDNSKNTLYLQMNSLRPEDTAVYYCNAEILKRAYIDVYVNYWGQGTLVTVSS | > 10000 pM | 4.6 pM | 1.2 pM | 12.4 pM | 1.7 pM | 1.7 pM | > 10000 pM | 3.1 pM | 6.7 pM | 3.1 pM | 1 fold | 3 fold | 3 fold | 14 fold | 2 fold | 4 fold | 1 fold | 4 fold | 35 fold | 7 fold
